# Test results taken from the supplement of paper PMC10899765.
# Test system: MCF10A
# Assay: 5+ nucleoli phenotype percent effect (relative to siNT 0% and siKIF11 100%); higher = more cells with five or more nucleoli
# Settings: 20 nM; 72 h
# Protocol: (§1)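 After 72 h, cells were fixed and stained with Hoechst and anti-fibrillarin, and nucleoli per nucleus were counted with CellProfiler. Values are plate-adjusted percent effect for the one-nucleolus and 5+ nucleoli phenotypes, normalised to siNT (0%) and to the positive controls siNOL11 or siKIF11 (100%), as the mean of biological triplicates. Percent viability is the nuclei count relative to siNT.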
row,Sequence,5+ nucleoli phenotype percent effect
1,CUACCCCCCAUCCCCCUGUAG [hsa-miR-6798-3p],-13.9%
2,AGGAGGGAAGGGGCUGAGAACAGGA [hsa-miR-6797-5p],33.9%
3,AAAAGCACUUUUCUGUCUCCCAG [hsa-miR-6835-3p],-36%
4,GGCUGAGUGGGGUUCUGACUCC [hsa-miR-8077],-6.36%
5,AAUAUAACACAGAUGGCCUGU [hsa-miR-410],27.3%
6,CAUUACAGCACAGCCAUUCU [hsa-miR-6504-3p],-25.6%
7,AGGCUGGAGUGAGCGGAG [hsa-miR-4430],-22%
8,UUGGGGUGGUCGGCCCUGGAG [hsa-miR-6737-5p],-19.8%
9,UUCACAUUGUGCUACUGUCUGC [hsa-miR-130a-5p],19%
10,CUGAAGCUCAGAGGGCUCUGAU [hsa-miR-127-5p],-40.5%
11,CAAAACGUGAGGCGCUGCUAU [hsa-miR-424-3p],-16.6%
12,UUGGGGAUUGGGUCAGGCCAGU [hsa-miR-6857-5p],-18%
13,AAAAUUUCUUUCACUACUUAG [hsa-miR-3606-3p],41.5%
14,CACCGGGGAUGGCAGAGGGUCG [hsa-miR-4655-5p],15%
15,UGUUUGUUGUAAGGAUCGUUGU [hsa-miR-8068],-15.7%
16,CAACCCUAGGAGAGGGUGCCAUUCA [hsa-miR-652-5p],-17.7%
17,UGCUGGGGGCCACAUGAGUGUG [hsa-miR-4731-5p],-2.14%
18,UCUUUUCUUUGAGACUCACU [hsa-miR-627-3p],21.8%
19,AAUCAGUGAAUGCCUUGAACCU [hsa-miR-5094],-13.9%
20,CAACUAGACUGUGAGCUUCUAG [hsa-miR-708-3p],46.1%

row,Sequence,5+ nucleoli phenotype percent effect
1,AACCCAGUGGGCUAUGGAAAUG [hsa-miR-4482-5p],-41%
2,GCUGCGCUUGGAUUUCGUCCCC [hsa-miR-191-3p],5.48%
3,UUAAUAUCGGACAACCAUUGU [hsa-miR-889],0.0778%
4,AAAAGUAAUUGCGGGUUUUGCC [hsa-miR-548as-5p],35.9%
5,AUGUAUGUGUGCAUGUGCAUG [hsa-miR-297],34.4%
6,AGGUGUGUCUGUAGAGUCC [hsa-miR-3650],-24.7%
7,UAGGGUACUCAGAGCAAGUUGU [hsa-miR-6841-5p],14.6%
8,AGAGUUAACUCAAAAUGGACUA [hsa-miR-4424],6.94%
9,CGGGGUUUUGAGGGCGAGAUGA [hsa-miR-193b-5p],-32.1%
10,ACCACUGCACUCCAGCCUGAG [hsa-miR-1273g-3p],-16.5%
11,UGAGGGAGUAGGAUGUAUGGUU [hsa-miR-4510],-17.6%
12,GGGGCUGGGCGCGCGCC [hsa-miR-4492],-0.324%
13,AAUCGUACAGGGUCAUCCACUU [hsa-miR-487b],24.3%
14,UAGGCAGUGUAUUGCUAGCGGCUGU [hsa-miR-449c-5p],-19.5%
15,UUGUUCUUUGGUCUUUCAGCCA [hsa-miR-4677-5p],-26.7%
16,UUAUUGUCACGUUCUGAUU [hsa-miR-5701],3.43%
17,AAAAGUAAUUGCGGUCUUU [hsa-miR-548ap-5p],39.1%
18,AAAGACUCUGCAAGAUGCCU [hsa-miR-4432],-6.99%
19,CAACCUCGAGGAUCUCCCCAGC [hsa-miR-3150b-5p],20.8%
20,UAGGACUAGAUGUUGGAAUUA [hsa-miR-4759],10.4%

row,Sequence,5+ nucleoli phenotype percent effect
1,GGGAGCCAGGAAGUAUUGAUGU [hsa-miR-505-5p],1.85%
2,UACUCCAGAGGGCGUCACUCAUG [hsa-miR-508-5p],0.947%
3,AAAAACCACAAUUACUUUU [hsa-miR-548ap-3p],-30.6%
4,CAAAAACUGCAGUUACUUUUGC [hsa-miR-548ah-3p],63.6%
5,UGUGUUAGAAUAGGGGCAAUAA [hsa-miR-3152-3p],-11.7%
6,GUUCCACACUGACACUGCAGAAGU [hsa-miR-3692-3p],6.05%
7,CUUGGGGCAUGGAGUCCCA [hsa-miR-4260],9.54%
8,UAAAACCCACAAUUAUGUUUGU [hsa-miR-548as-3p],-6.8%
9,CAGCAGCACACUGUGGUUUGU [hsa-miR-497-5p],-38.4%
10,CACCCCCUGUUUCCUGGCCCAC [hsa-miR-4640-3p],31.4%
11,UCAGAACAAAUGCCGGUUCCCAGA [hsa-miR-589-3p],5.52%
12,CCAGGGAGGCUGGUUUGGAGGA [hsa-miR-6754-5p],-21.9%
13,UGGGCUCAGGGUACAAAGGUU [hsa-miR-4437],-5.83%
14,GCGCUGACCCGCCUUCUCCGCA [hsa-miR-6825-3p],45.7%
15,AGCCUUCCAGGAGAAAUGGAGA [hsa-miR-5581-5p],-16.7%
16,GGUUCUUAGCAUAGGAGGUCU [hsa-miR-2116-5p],-5.52%
17,GAGCCAGUUGGACAGGAGC [hsa-miR-575],3.98%
18,CAGAGAAUUGUUUAAUC [hsa-miR-3123],54.9%
19,UGGCCCUUUGUACCCCUCCAG [hsa-miR-6851-3p],54.7%

# Test system: MCF10A
# Assay: one-nucleolus phenotype percent effect (relative to siNT 0% and siNOL11 100%); higher = more cells with one nucleolus (ribosome biogenesis inhibition)
# Settings: 20 nM; 72 h
# Protocol: as §1
row,Sequence,one-nucleolus phenotype percent effect
1,CUACCCCCCAUCCCCCUGUAG [hsa-miR-6798-3p],-5.24%
2,AGGAGGGAAGGGGCUGAGAACAGGA [hsa-miR-6797-5p],-10.1%
3,AAAAGCACUUUUCUGUCUCCCAG [hsa-miR-6835-3p],12.3%
4,GGCUGAGUGGGGUUCUGACUCC [hsa-miR-8077],-3.93%
5,AAUAUAACACAGAUGGCCUGU [hsa-miR-410],-9.74%
6,CAUUACAGCACAGCCAUUCU [hsa-miR-6504-3p],2.85%
7,AGGCUGGAGUGAGCGGAG [hsa-miR-4430],57.5%
8,UUGGGGUGGUCGGCCCUGGAG [hsa-miR-6737-5p],48.7%
9,UUCACAUUGUGCUACUGUCUGC [hsa-miR-130a-5p],-14.6%
10,CUGAAGCUCAGAGGGCUCUGAU [hsa-miR-127-5p],39%
11,CAAAACGUGAGGCGCUGCUAU [hsa-miR-424-3p],-5.82%
12,UUGGGGAUUGGGUCAGGCCAGU [hsa-miR-6857-5p],29.9%
13,AAAAUUUCUUUCACUACUUAG [hsa-miR-3606-3p],-25.7%
14,CACCGGGGAUGGCAGAGGGUCG [hsa-miR-4655-5p],24.6%
15,UGUUUGUUGUAAGGAUCGUUGU [hsa-miR-8068],7.78%
16,CAACCCUAGGAGAGGGUGCCAUUCA [hsa-miR-652-5p],12.5%
17,UGCUGGGGGCCACAUGAGUGUG [hsa-miR-4731-5p],40.3%
18,UCUUUUCUUUGAGACUCACU [hsa-miR-627-3p],-15.6%
19,AAUCAGUGAAUGCCUUGAACCU [hsa-miR-5094],-15%
20,CAACUAGACUGUGAGCUUCUAG [hsa-miR-708-3p],-31%
21,AACCCAGUGGGCUAUGGAAAUG [hsa-miR-4482-5p],59.8%
22,GCUGCGCUUGGAUUUCGUCCCC [hsa-miR-191-3p],5.27%
23,UUAAUAUCGGACAACCAUUGU [hsa-miR-889],-0.642%
24,AAAAGUAAUUGCGGGUUUUGCC [hsa-miR-548as-5p],-24.9%
25,AUGUAUGUGUGCAUGUGCAUG [hsa-miR-297],-26.3%
26,AGGUGUGUCUGUAGAGUCC [hsa-miR-3650],45.8%
27,UAGGGUACUCAGAGCAAGUUGU [hsa-miR-6841-5p],-4.08%
28,AGAGUUAACUCAAAAUGGACUA [hsa-miR-4424],-9.95%
29,CGGGGUUUUGAGGGCGAGAUGA [hsa-miR-193b-5p],25.4%
